Reference: PMC11829585

T1: HuNoV GII.2 VLP (Human norovirus GII.2, UniProt A0A291L9K1 1-542)
T1 sequence: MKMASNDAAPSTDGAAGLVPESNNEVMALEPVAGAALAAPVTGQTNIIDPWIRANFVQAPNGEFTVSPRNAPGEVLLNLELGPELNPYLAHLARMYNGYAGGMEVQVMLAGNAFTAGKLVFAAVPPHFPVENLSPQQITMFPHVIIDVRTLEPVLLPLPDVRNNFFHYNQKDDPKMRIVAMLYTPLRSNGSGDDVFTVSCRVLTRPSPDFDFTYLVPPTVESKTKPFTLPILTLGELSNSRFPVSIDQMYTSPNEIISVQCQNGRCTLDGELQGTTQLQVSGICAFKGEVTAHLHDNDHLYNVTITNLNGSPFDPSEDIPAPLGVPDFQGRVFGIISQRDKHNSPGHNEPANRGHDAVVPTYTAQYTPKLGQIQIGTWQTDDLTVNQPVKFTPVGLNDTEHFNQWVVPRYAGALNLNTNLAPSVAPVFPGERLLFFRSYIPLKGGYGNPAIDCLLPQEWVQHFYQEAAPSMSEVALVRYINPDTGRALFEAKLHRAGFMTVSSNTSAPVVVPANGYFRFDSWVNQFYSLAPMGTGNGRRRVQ

B1: AP4-2 (ssDNA)
DNA: AACACGACAACCCTGTGACCAACGAACCACACCAAAGTGGGC
B2: AP17-4 (ssDNA)
DNA: GGAACACGACCCGTCTGTGGCCATCACAGTACAGCATCGTCGTG

Molecular target: T1, HuNoV GII.2 VLP
Experiment: dot blot

| Binder | binding result |
| --- | --- |
| B1 | binds |
| B2 | binds |
